Results published in patent US20080004355A1, “Method for Inhibiting Telomerase Activity and an Agent for Inhibiting the Same” (priority 2004, published 2008).
Residue numbers refer to the chain shown, from its start. Each block holds one molecule with its values, some of them ahead of it. Peptide text beside a SMILES is read from it. * marks the point of attachment. Cbz = O=C(OCc1ccccc1)*

Columns and labels:
TERT = experiment: Effect of proteasome inhibitor on amount of intracellular TERT (transient TERT expression, Western blotting); format: cell-based, human; conditions: HEK293T cells transfected with pCIneo-TERT; final concentration 25 μM, 24 hours; compared with DMSO control; Western blotting with anti-TERT antibodies
Text: NEDD8 is a ubiquitin-like protein, and is known to covalently conjugate to proteins for post translational modification of proteins. Only a cullin family protein, which is one of the subunits of a ubiquitin ligase complex, has been reported as a protein that undergoes NEDD8 conjugation (Non-patent References 5 and 6). […] NEDD8 has a significant homology with ubiquitin at the level of both primary structure and tertiary structure. Therefore, it is plausible that NEDD8 conjugation to proteins works as a signal for proteasome-dependent protein degradation (Non-patent Reference 5), similar to ubiquitination. Thus, it can be reasoned, that there exists a regulatory system for TERT degradation via modification by NEDD8 conjugation to TERT and NEDD8 deconjugation by USP21. Accordingly, an investigation was conducted to determine whether TERT may undergo proteasome-dependent degradation. […]
8×10^4 cells/well of HEK293T cells were cultured overnight at 37° C. under the atmosphere of 5% CO2 in 12 well plates, and then transfected with 1 μg of pCIneo-TERT using FuGENE6 Transfection Reagent (Roche). […] Further, β-tubulin, an internal control protein in the cell lysates, was detected by Western blotting using anti-β-tubulin (H-235) antibodies (Santa Cruz). […]

[1] = biological target: TERT modified with one or more FLAG-NEDD8 molecules (NEDD8-conjugated TERT)
[2] = biological target: T1, N-terminal FLAG-tagged TERT (human, UniProt O14746 1-1132); experiment: co-expression in HEK293T cells, immunoprecipitation with anti-HA agarose, Western blot with anti-FLAG
T1 construct: Expressed transiently in HEK293T cells from pCI-FLAG-TERT (human TERT cDNA cloned from human thymus cDNA); present in the cell lysate; also called FLAG-TERT
Method: 4×10⁵ HEK293T cells were cultured overnight at 37° C. under the atmosphere of 5% CO₂ in a dish with 60 mm diameter, and then transfected with 2 μg of pCI-FLAG-TERT alone or in combination with 2 μg of pCI-HA-USP21 or pCI-HA-NEDD8, using FuGENE6 Transfection Reagent (Roche). After 2 days of culturing, the cells were collected and suspended in 500 μl of cell lysis buffer (20 mM Tris-HCl, pH7.4/150 mM NaCl/1 mM ethylenediaminetetraacetic acid (EDTA)/1 mM ethylene glycol-bis-tetraacetic acid (EGTA)/1% Triton X-100/2.5 mM sodium pyrophsphate/1 mM β-glycerophsphate/1 mM Na₃VO₄/protease inhibitor cocktail), and then left to stand on ice for 20 minutes. Subsequently, centrifugation was conducted at 4° C. for 10 minutes at 14,000 rpm to collect the supernatants. The supernatants that were collected were used as cell lysates. […] The resulting supernatant was added to 10 μl of anti-HA antibody-conjugated agarose (anti-HA(Y-11)-agaraose, Santa cruz), and then subjected to overturned mixing at 4° C. overnight, followed by centrifugation to collect the beads. The beads were washed with the cell lysis buffer four times, and then added with 30 μl of 2× SDS sample buffer (125 mM Tris HCl, pH 6.8/4% sodium dodecylsulphate (SDS)/20% glycerol/0.01% bromophenol blue). […]

T1 sequence (O14746 whole entry): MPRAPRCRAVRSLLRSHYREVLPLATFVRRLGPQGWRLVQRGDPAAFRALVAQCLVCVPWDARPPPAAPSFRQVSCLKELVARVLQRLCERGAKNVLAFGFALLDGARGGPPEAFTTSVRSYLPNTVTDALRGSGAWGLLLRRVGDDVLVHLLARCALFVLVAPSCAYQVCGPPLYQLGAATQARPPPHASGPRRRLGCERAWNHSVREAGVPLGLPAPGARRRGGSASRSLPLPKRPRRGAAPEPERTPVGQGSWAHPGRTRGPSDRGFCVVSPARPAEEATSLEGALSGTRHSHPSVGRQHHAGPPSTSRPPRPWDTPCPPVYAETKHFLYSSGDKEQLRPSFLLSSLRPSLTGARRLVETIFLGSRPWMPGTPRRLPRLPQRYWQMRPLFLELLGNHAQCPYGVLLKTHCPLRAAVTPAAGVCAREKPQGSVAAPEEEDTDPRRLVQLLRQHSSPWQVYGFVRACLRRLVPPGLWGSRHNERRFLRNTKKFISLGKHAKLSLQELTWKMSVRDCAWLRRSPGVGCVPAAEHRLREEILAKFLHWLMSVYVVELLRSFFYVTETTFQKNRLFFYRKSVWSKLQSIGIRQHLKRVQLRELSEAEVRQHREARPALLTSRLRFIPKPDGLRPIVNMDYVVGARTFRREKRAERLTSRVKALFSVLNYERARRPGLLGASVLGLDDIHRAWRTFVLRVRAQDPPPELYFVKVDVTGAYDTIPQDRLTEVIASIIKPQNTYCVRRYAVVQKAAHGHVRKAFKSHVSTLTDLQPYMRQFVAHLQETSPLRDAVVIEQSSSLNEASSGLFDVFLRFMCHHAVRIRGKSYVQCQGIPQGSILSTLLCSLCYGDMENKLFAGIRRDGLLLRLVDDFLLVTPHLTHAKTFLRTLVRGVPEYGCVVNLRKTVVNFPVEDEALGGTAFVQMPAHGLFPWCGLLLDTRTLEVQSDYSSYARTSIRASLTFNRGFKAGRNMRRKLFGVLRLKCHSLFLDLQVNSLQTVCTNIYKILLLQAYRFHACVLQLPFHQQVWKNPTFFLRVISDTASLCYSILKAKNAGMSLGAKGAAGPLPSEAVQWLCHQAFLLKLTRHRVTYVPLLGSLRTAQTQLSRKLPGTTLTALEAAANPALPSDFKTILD

Molecule: CC(C)C[C@@H](C=O)NC(=O)[C@H](CC(C)C)NC(=O)[C@H](CC(C)C)NC(=O)OCc1ccccc1 [MG132] (Cbz-Leu-Leu-Leu-aldehyde)
amount of TERT in cell lysate (TERT): increased amount of TERT

binding result [2]: binds
B1: N-terminal HA-tagged USP21 (enzyme, not shown: small tags and cut ends)
chain: MPQASEHRLGRTREPPVNIQPRVGSKLPFAPRARSKERRNPASGPNPMLRPLPPRPGLPDERLKKLELGRGRTSGPRPRGPLRADHGVPLPGSPPPTVALPLPSRTNLARSKSVSSGDLRPMGIALGGHRGTGELGAALSRLALRPEPPTLRRSTSLRRLGGFPGPPTLFSIRTEPPASHGSFHMISARSSEPFYSDDKMAHHTLLLGSGHVGLRNLGNTCFLNAVLQCLSSTRPLRDFCLRRDFRQEVPGGGRAQELTEAFADVIGALWHPDSCEAVNPTRFRAVFQKYVPSFSGYSQQDAQEFLKLLMERLHLEINRRGRRAPPILANGPVPSPPRRGGALLEEPELSDDDRANLMWKRYLEREDSKIVDLFVGQLKSCLKCQACGYRSTTFEVFCDLSLPIPKKGFAGGKVSLRDCFNLFTKEEELESENAPVCDRCRQKTRSTKKLTVQRFPRILVLHLNRFSASRGSIKKSSVGVDFPLQRLSLGDFASDKAGSPVYQLYALCNHSGSVHYGHYTALCRCQTGWHVYNDSRVSPVSENQVASSEGYVLFYQLMQEPPRCL
notes: Expressed transiently in HEK293T cells from pCI-HA-USP21 (human USP21 cDNA cloned from human kidney cDNA); also called HA-USP21
smear-like signals in a high molecular region indicating TERT modified with one or more FLAG-NEDD8 molecules (IP anti-TERT, Western blot anti-FLAG) [1]: significantly decreased by co-expression of HA-USP21

B2: N-terminal HA-tagged inactive USP21 (protein)
chain: B1 chain with C221A
smear-like signals in a high molecular region indicating TERT modified with one or more FLAG-NEDD8 molecules (IP anti-TERT, Western blot anti-FLAG) [1]: Such decrease of the signals was not observed when co-expressing the inactive USP21, HA-USP21C221A, instead of HA-USP21
